The text below walks through data of article PMC11638003, “Plant phytochrome interactions decode light and temperature signals” (The Plant Cell, 2024).

No end group written: not given here.

The target of one experiment is P3A or PIF3. Description: FRET or BRET; as a5 (association and dissociation kinetics after a red-light pulse) at several temperatures up to 30 °C; values told for 30 °C or for 30 °C against 15 °C. A general note: BRET reads energy transfer from a luciferase to a nearby fluorophore.
Experiment [1] deals with T1, Arabidopsis thaliana phytochrome B, N-terminal fragment encompassing the N-terminal extension (NTE) and the … (Arabidopsis thaliana, UniProt P14713 1-651, phycocyanobilin chromophore, covalently bound).
T1 construct: Phytochrome B, Arabidopsis thaliana, GenBank CAA35222.1; N-terminal fragment with the NTE and the PCM (nPAS-GAF-PHY), lacking PAS1, PAS2 and the HKRD; source: E. coli LOBSTR, purified (Co2+-NTA IMAC, anion exchange); plasmid also encodes Synechocystis sp. heme oxygenase 1 and PcyA
T1 sequence (looked up): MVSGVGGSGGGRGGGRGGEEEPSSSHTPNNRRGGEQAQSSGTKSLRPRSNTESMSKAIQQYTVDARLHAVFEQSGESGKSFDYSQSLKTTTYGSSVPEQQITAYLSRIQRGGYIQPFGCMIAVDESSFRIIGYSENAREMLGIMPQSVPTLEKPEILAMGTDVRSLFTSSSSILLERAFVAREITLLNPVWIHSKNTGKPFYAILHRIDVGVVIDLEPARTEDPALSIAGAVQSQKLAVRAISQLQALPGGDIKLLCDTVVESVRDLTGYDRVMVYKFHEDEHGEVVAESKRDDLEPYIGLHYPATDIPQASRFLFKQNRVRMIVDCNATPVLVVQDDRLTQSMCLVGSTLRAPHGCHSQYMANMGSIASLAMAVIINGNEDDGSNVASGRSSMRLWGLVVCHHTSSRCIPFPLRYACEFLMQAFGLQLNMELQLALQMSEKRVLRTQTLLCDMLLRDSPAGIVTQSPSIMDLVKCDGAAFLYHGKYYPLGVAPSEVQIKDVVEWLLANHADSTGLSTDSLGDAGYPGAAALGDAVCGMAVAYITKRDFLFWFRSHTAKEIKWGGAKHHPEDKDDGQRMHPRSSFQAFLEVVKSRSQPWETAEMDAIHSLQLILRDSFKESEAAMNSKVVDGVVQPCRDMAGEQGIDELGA
Nature of the experiment: FRET or BRET; association kinetics at 15 °C after a 0.5-s pulse of red light (658 nm, 69 mW cm^-2, optical shutter); 20 nM PIF-mScarlet-I variant with 500 to 2,000 nM AtPhyB PCM, or 30 nM P6A-mScarlet-I with 750 to 2,500 nM AtPhyB (1-982); 50 mM Tris/HCl pH 8.0, 20 mM NaCl; pseudo-first-order, linear fit of koFR against the AtPhyB concentration; kaFR corrected for the Pfr fraction; Kd calculated from kdFR and kaFR …. Conditions: both partners purified.

For experiment [2], the target named is T2, P6A-mScarlet-I (Arabidopsis PIF6 residues 14 to 53, APB.A portion, fused to mScarlet-I) (Arabidopsis thaliana, UniProt Q8L5W7 14-53).
T2 construct: mScarlet-I: GenBank APD76536; source: E. coli LOBSTR, purified (IMAC, SENP2 cleavage, second IMAC, optionally anion exchange); not shown: His6-SUMO, N-terminal, cleaved; mScarlet-I, C-terminal, kept
T2 chain (looked up): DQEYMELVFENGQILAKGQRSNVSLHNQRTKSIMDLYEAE
Description: FRET or BRET; as a5 (association and dissociation kinetics after a red-light pulse) at several temperatures up to 30 °C; values told for 30 °C or for 30 °C against 15 °C. To be noted: both partners purified.

As to “Arabidopsis thaliana phytochrome B, N-terminal fragment encompassing the N-terminal extension (NTE) and the photosensory core module (AtPhyB PCM) (from UniProt P14713 1-651) (domain or fragment)”, in the experiment with P3A or PIF3, the fold reduction of the affinity, 30 °C against 15 °C is 1.4 to 2.6 fold.

B1: P3A-mScarlet-I (Arabidopsis PIF3 residues 14 to 55, APB.A portion, fused to mScarlet-I) (domain or fragment, Arabidopsis thaliana, UniProt O80536 14-55, looked up)
chain: LESAQDRNPSPPVDEVVELVWENGQISTQSQSSRSRNIPPPQ-{mScarlet‑I}
notes: mScarlet-I: GenBank APD76536; source: E. coli LOBSTR, purified (IMAC, SENP2 cleavage, second IMAC, optionally anion exchange); not shown: His6-SUMO, N-terminal, cleaved; mScarlet-I, C-terminal, kept
On to B1, for which, in experiment [1], the Kd – broadly, a measure of binding affinity in units of concentration – is 322 ± 109 nM; the off-rate (koff) (commonly the first-order rate constant of dissociation) was 0.1 s⁻¹; the association rate constant (kon) (commonly the rate constant with which the complex forms) is 310000 M⁻¹ s⁻¹.

B2: PIF3-mScarlet-I (Arabidopsis PIF3 residues 1 to 100 fused to mScarlet-I) (domain or fragment, Arabidopsis thaliana, UniProt O80536 1-100, looked up)
chain: MPLFELFRLTKAKLESAQDRNPSPPVDEVVELVWENGQISTQSQSSRSRNIPPPQANSSRAREIGNGSKTTMVDEIPMSVPSLMTGLSQDDDFVPWLNHH
notes: mScarlet-I: GenBank APD76536; also called AtPIF3; source: E. coli LOBSTR, purified (IMAC, SENP2 cleavage, second IMAC, optionally anion exchange); not shown: His6-SUMO, N-terminal, cleaved
With B2, in experiment [1], the dissociation constant Kd is 308 ± 42 nM, the koff is 0.13 s⁻¹ and the association rate constant (kon) is 430000 M⁻¹ s⁻¹.

B3: PIF6-mScarlet-I (Arabidopsis PIF6 residues 1 to 100 fused to mScarlet-I) (domain or fragment, Arabidopsis thaliana, UniProt Q8L5W7 1-100, looked up)
chain: MMFLPTDYCCRLSDQEYMELVFENGQILAKGQRSNVSLHNQRTKSIMDLYEAEYNEDFMKSIIHGGGGAITNLGDTQVVPQSHVAAAHETNMLESNKHVD
notes: mScarlet-I: GenBank APD76536; also called AtPIF6; source: E. coli LOBSTR, purified (IMAC, SENP2 cleavage, second IMAC, optionally anion exchange); not shown: His6-SUMO, N-terminal, cleaved
On to B3, for which, in experiment [1], the Kd is 133 ± 55 nM, the koff was 0.07 s⁻¹ and the kon was 520000 M⁻¹ s⁻¹.

B4: Arabidopsis thaliana phytochrome B residues 1 to 982, AtPhyB (1-982) (domain or fragment, UniProt P14713 1-982, looked up)
chain: MVSGVGGSGGGRGGGRGGEEEPSSSHTPNNRRGGEQAQSSGTKSLRPRSNTESMSKAIQQYTVDARLHAVFEQSGESGKSFDYSQSLKTTTYGSSVPEQQITAYLSRIQRGGYIQPFGCMIAVDESSFRIIGYSENAREMLGIMPQSVPTLEKPEILAMGTDVRSLFTSSSSILLERAFVAREITLLNPVWIHSKNTGKPFYAILHRIDVGVVIDLEPARTEDPALSIAGAVQSQKLAVRAISQLQALPGGDIKLLCDTVVESVRDLTGYDRVMVYKFHEDEHGEVVAESKRDDLEPYIGLHYPATDIPQASRFLFKQNRVRMIVDCNATPVLVVQDDRLTQSMCLVGSTLRAPHGCHSQYMANMGSIASLAMAVIINGNEDDGSNVASGRSSMRLWGLVVCHHTSSRCIPFPLRYACEFLMQAFGLQLNMELQLALQMSEKRVLRTQTLLCDMLLRDSPAGIVTQSPSIMDLVKCDGAAFLYHGKYYPLGVAPSEVQIKDVVEWLLANHADSTGLSTDSLGDAGYPGAAALGDAVCGMAVAYITKRDFLFWFRSHTAKEIKWGGAKHHPEDKDDGQRMHPRSSFQAFLEVVKSRSQPWETAEMDAIHSLQLILRDSFKESEAAMNSKVVDGVVQPCRDMAGEQGIDELGAVAREMVRLIETATVPIFAVDAGGCINGWNAKIAELTGLSVEEAMGKSLVSDLIYKENEATVNKLLSRALRGDEEKNVEVKLKTFSPELQGKAVFVVVNACSSKDYLNNIVGVCFVGQDVTSQKIVMDKFINIQGDYKAIVHSPNPLIPPIFAADENTCCLEWNMAMEKLTGWSRSEVIGKMIVGEVFGSCCMLKGPDALTKFMIVLHNAIGGQDTDKFPFPFFDRNGKFVQALLTANKRVSLEGKVIGAFCFLQIPSPELQQALAVQRRQDTECFTKAKELAYICQVIKNPLSGMRFANSLLEATDLNEDQKQLLETSVSCEKQISRIVGD
modifications: phycocyanobilin chromophore, covalently bound
notes: the oligomeric state is not measured directly here; also called AtPhyB982; source: E. coli LOBSTR, purified (Co2+-NTA IMAC, anion exchange); plasmid also encodes Synechocystis sp. heme oxygenase 1 and PcyA
As for B4, in experiment [2], the “fold change of kdFR, 30 °C against 15 °C” value is 5 fold and the “fold reduction of the affinity, 30 °C against 15 °C” value was 3 fold.
